Assay results reported in patent US7838231.

Experiments:
[1] = biological target: endogenous ATF4 of HEK293T cells (UniProt P18848); assay: cell-based or functional assay
[2] = biological target: full-length ATF4 (pCEP-ATF4) (UniProt P18848); assay: cell-based or functional assay
Chain of full-length ATF4 (pCEP-ATF4) (P18848 whole entry): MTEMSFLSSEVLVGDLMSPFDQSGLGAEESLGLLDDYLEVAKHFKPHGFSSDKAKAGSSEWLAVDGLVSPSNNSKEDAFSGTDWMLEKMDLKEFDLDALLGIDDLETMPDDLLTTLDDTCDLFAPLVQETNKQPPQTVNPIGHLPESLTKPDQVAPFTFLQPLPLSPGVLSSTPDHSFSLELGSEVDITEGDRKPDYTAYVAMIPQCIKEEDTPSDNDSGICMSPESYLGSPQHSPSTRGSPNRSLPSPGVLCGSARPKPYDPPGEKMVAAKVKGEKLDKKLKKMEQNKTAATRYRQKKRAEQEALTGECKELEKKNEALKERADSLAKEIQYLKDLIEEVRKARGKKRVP

Chain of endogenous ATF4 of HEK293T cells (P18848 whole entry): as above

Substance	reporter activity (pCRE-ATF4X2, HEK293T cells) after knock-down of NPHP6 with pTER-NPHP6, compared to empty vector [1]	reporter activity (dual-luciferase reporter construct for ATF4, pCRE-ATF4×2, in HEK293T cells), compared to empty vector pCEP4F [2]	reporter activity (pCRE-ATF4×2, HEK293T cells) with either construct alone, compared to empty vector pCEP4F [2]
endogenous NPHP6 of HEK293 / HEK293T cells (from UniProt O15078 1-2479)	75.4%	–	–
myc-tagged full-length human NPHP6 (pCJW206-Cep290) (from UniProt O15078 1-2479)	–	9.7 fold	2 fold
